Assay results published in US20120090043A1, “TARGETS FOR RETROVIRUS ASSOCIATED DISEASES” (priority 2009, published 2012).

System: HTLV-1 LTR promoter transactivation by HTLV-1 Tax
Assay: Transactivation assay, HTLV-1 LTR luciferase reporter with HTLV-1 Tax
Format: cell-based
Details: HEK293 cells co-transfected with pHTLV1LTR-Luc, HTLV-1 Tax and the human ORF; relative luciferase activity 24 h post-transfection; positive if >=2 or <=0.5 and p<0.05
Description: Twenty-four hours post-transfection, cells were washed three times with PBS, lysed and luciferase activities determined from two independent transfection experiments in triplicate. We computed a paired t-test to assess the difference of the means between samples with and without the human interactor. For a trial to be considered positive, the relative luciferase activities has to be >=2 or <=0.5, and the p-value of the t-test<0.05.
Expression vectors encoding human ORFs and HIV-1 Tat or HTLV-1 Tax proteins were tested in a transactivation reporter assay against reporter plasmids harboring HIV-1 or HTLV-1 viral promoter sequences cloned upstream of the luciferase reporter gene. […] Wherever not expressly specified, constructs used herein were generally made by sub-cloning entry clones from the ORFeome V3.1 into suitable destination vectors.

| Molecule | HTLV_LTR transactiv. [fold change] |
| --- | --- |
| KIAA1949: human host interactor protein, Gene ID 170954, expressed from transfected ORF vector (protein) MATIPDWKLQLLARRRQEEASVRGREKAERERLSQMPAWKRGLLERRRAKLGLSPGEPSPVLGTVEAGPPDPDESAVLLEAIGPVHQNRFIRQERQQQQQQQQRSEELLAERKPGPLEARERRPSPGEMRDQSPKGRESREERLSPRETRERRLGIGGAQELSLRPLEARDWRQSPGEVGDRSSRLSEAWKWRLSPGETPERSLRLAESREQSPRRKEVESRLSPGESAYQKLGLTEAHKWRPDSRESQEQSLVQLEATEWRLRSGEERQDYSEECGRKEEWPVPGVAPKETAELSETLTREAQGNSSAGVEAAEQRPVEDGERGMKPTEGWKWTLNSGKAREWTPRDIEAQTQKPEPPESAEKLLESPGVEAGEGEAEKEEAGAQGRPLRALQNCCSVPSPLPPEDAGTGGLRQQEEEAVELQPPPPAPLSPPPPAPTAPQPPGDPLMSRLFYGVKAGPGVGAPRRSGHTFTVNPRRSVPPATPATPTSPATVDAAVPGAGKKRYPTAEEILVLGGYLRLSRSCLAKGSPERHHKQLKISFSETALETTYQYPSESSVLEELGPEPEVPSAPNPPAAQPDDEEDEEELLLLQPELQGGLRTKALIVDESCRR | 0.35 |
| FLJ22471: human host interactor protein, Gene ID 80212, expressed from transfected ORF vector (protein) MTSPHFSSYDEGPLDVSMAATNLENQLHSAQKNLLFLQREHASTLKGLHSEIRRLQQHCTDLTYELTVKSSEQTGDGTSKSSELKKRCEELEAQLKVKENENAELLKELEQKNAMITVLENTIKEREKKYLEELKAKSHKLTLLSSELEQRASTIAYLTSQLHAAKKKLMSSSGTSDASPSGSPVLASYKPAPPKDKLPETPRRRMKKSLSAPLHPEFEEVYRFGAESRKLLLREPVDAMPDPTPFLLARESAEVHLIKERPLVIPPIASDRSGEQHSPAREKPHKAHVGVAHRIHHATPPQAQPEVKTLAVDQVNGGKVVRKHSGTDRTV | 2.25 |
| HSFY1: human host interactor protein, Gene ID 86614, expressed from transfected ORF vector (protein) MAHVSSETQDVSPKDELTASEASTRSPLCEHTFPGDSDLRSMIEEHAFQVLSQGSLLESPSYTVCVSEPDKDDDFLSLNFPRKLWKIVESDQFKSISWDENGTCIVINEELFKKEILETKAPYRIFQTDAIKSFVRQLNLYGFSKIQQNFQRSAFLATFLSEEKESSVLSKLKFYYNPNFKRGYPQLLVRVKRRIGVKNASPISTLFNEDFNKKHFRAGANMENHNSALAAEASEESLFSASKNLNMPLTRESSVRQIIANSSVPIRSGFPPPSPSTSVGPSEQIATDQHAILNQLTTIHMHSHSTYMQARGHIVNFITTTTSQYHIISPLQNGYFGLTVEPSAVPTRYPLVSVNEAPYRNMLPAGNPWLQMPTIADRSAAPHSRLALQPSPLDKYHPNYN | 0.43 |
| DHRS10: human host interactor protein, Gene ID 51171, expressed from transfected ORF vector (protein) MATGTRYAGKVVVVTGGGRGIGAGIVRAFVNSGARVVICDKDESGGRALEQELPGAVFILCDVTQEDDVKTLVSETIRRFGRLDCVVNNAGHHPPPQRPEETSAQGFRQLLELNLLGTYTLTKLALPYLRKSQGNVINISSLVGAIGQAQAVPYVATKGAVTAMTKALALDESPYGVRVNCISPGNIWTPLWEELAALMPDPRATIREGMLAQPLGRMGQPAEVGAAAVFLASEANFCTGIELLVTGGAELGYGCKASRSTPVDAPDIPS | 0.41 |
| DAZAP2: human host interactor protein, Gene ID 9802, expressed from transfected ORF vector (protein) MNSKGQYPTQPTYPVQPPGNPVYPQTLHLPQAPPYTDAPPAYSELYRPSFVHPGAATVPTMSAAFPGASLYLPMAQSVAVGPLGSTIPMAYYPVGPIYPPGSTVLVEGGYDAGARFGAGATAGNIPPPPPGCPPNAAQLAVMQGANVLVTQRKGNFFMGGSDGGYTIW | 3.31 |
| FATE1: human host interactor protein, Gene ID 89885, expressed from transfected ORF vector (protein) MAGGPPNTKAEMEMSLAEELNHGRQGENQEHLVIAEMMELGSRSRGASQKKQKLEQKAAGSASAKRVWNMTATRPKKMGSQLPKPRMLRESGHGDAHLQEYAGNFQGIRFHYDRNPGTDAVAQTSLEEFNVLEMEVMRRQLYAVNRRLRALEEQGATWRHRETLIIAVLVSASIANLWLWMNQ | 0.49 |
| FLJ10726: human host interactor protein, Gene ID 55216, expressed from transfected ORF vector (protein) MSRIPLGKVLLRNVIRHTDAHNKIQEESDMWKIRELEKQMEDAYRGTKRKMLPSSSSRMRSDGFDEESQRYYWRPKNEISGTLEDDFLKAKSWNKKFYDYEANMPDRWGHSGYKELYPEEFETDSDQQDITNGKKTSPQVKSSTHESRKHKKSKKSHKKKQKKRSHKKQKKSKKEATDITADSSSEFSEETGASGTRKGKQPHKRKKKSRKKSLKKPALFLEAESNTSHSDDSASSSSEESEERDTKKTKRKKREKKAHTSVANNEIQERTNKRTNWKVATDERSAESSEDD | 0.19 |
| DGCR6L: human host interactor protein, Gene ID 85359, expressed from transfected ORF vector (protein) MERYAAALEEVADGARQQERHYQLLSALQSLVKELPSSFQQRLSYTTLSDLALALLDGTVFEIVQGLLEIQHLTEKSLYNQRLRLQNEHRVLRQALRQKHQEAQQACRPHNLPVVQAAQQRELEAVEHRIREEQRAMDQKIILELDRKVADQQSTLEKAGVAGFYVTTNPQELMLQMNLLELIRKLQQRGCRAGNAALGLGGPWQSPAAQCDQKGSPVPP | 0.24 |
| C1orf94: human host interactor protein, Gene ID 84970, expressed from transfected ORF vector (protein) MRGGGGCVLALGGQRGFQKERRRMASGNGLPSSSALVAKGPCALGPFPRYIWIHQDTPQDSLDKTCHEIWKRVQGLPEASQPWTSMEQLSVPVVGTLRGNELSFQEEALELSSGKDEISLLVEQEFLSLTKEHSILVEESSGELEVPGSSPEGTRELAPCILAPPLVAGSNERPRASIIVGDKLLKQKVAMPVISSRQDCDSATSTVTDILCAAEVKSSKGTEDRGRILGDSNLQVSKLLSQFPLKSTETSKVPDNKNVLDKTRVTKDFLQDNLFSGPGPKEPTGLSPFLLLPPRPPPARPDKLPELPAQKRQLPVFAKICSKPKADPAVERHHLMEWSPGTKEPKKGQGSLFLSQWPQSQKDACGEEGCCDAVGTASLTLPPKKPTCPAEKNLLYEFLGATKNPSGQPRLRNKVEVDGPELKFNAPVTVADKNNPKYTGNVFTPHFPTAMTSATLNQPLWLNLNYPPPPVFTNHSTFLQYQGLYPQQAARMPYQQALHPQLGCYSQQVMPYNPQQMGQQIFRSSYTPLLSYIPFVQPNYPYPQRTPPKMSANPRDPPLMAGDGPQYLFPQGYGFGSTSGGPLMHSPYFSSSGNGINF | 0.41 |
| DIPA: human host interactor protein, Gene ID 11007, expressed from transfected ORF vector (protein) MEAEAGGLEELTDEEMAALGKEELVRRLRREEAARLAALVQRGRLMQEVNRQLQGHLGEIRELKQLNRRLQAENRELRDLCCFLDSERQRGRRAARQWQLFGTQASRAVREDLGGCWQKLAELEGRQEELLRENLALKELCLALGEEWGPRGGPSGAGGSGAGPAPELALPPCGPRDLGDGSSSTGSVGSPDQLPLACSPDD | 0.28 |
| CCDC24: human host interactor protein, Gene ID 149473, expressed from transfected ORF vector (protein) MLRHSPSLWELVEEHVPLRERREVKRILGEAAVDLSLELRAEVAMLRALLQEARSSQAPSSRPISDPSSLLAPPPLLKDLLRQELRQLLQGLRHKAICEGRDQAQAWVQYSPRVLHFALEEPRCDLPEQEIFQMRGGGPSSGHRDLSIIKDQLNVSNIDQVARHLRGLLEEECHTLEREILILQRCLEEEYLRPCHPSEAALEPTLAELKEQKKAMEQELQASVGPSCVSPNHRQRPLGSSTQGLRPPLPLCGVAPLQCCLPAPPLEPYLRPRGQSATHRWGRQLQCSPREGPASTPMSSAAPQAPA | 2.88 |
